Reference: paper PMC3210482 (Journal of molecular biology, 2011)
Read-outs that look alike come from different tables or passages of the source.

Key:
[1] = biological target: the molecule itself; experiment: FRET or BRET
[2] = biological target: the molecule itself; experiment: FRET or BRET; remark: listed apart in the source

Protein	Kd [1]	Kd [2]
EnvZHDC (cytoplasmic HAMP, DHp and CA domains of E. coli histidine kinase EnvZ, amino acids 179-450) (domain or fragment, UniProt P0AEJ4 179-450, looked up) IRIQNRPLVDLEHAALQVGKGIIPPPLREYGASEVRSVTRAFNHMAAGVKQLADDRTLLMAGVSHDLRTPLTRIRLATEMMSEQDGYLAESINKDIEECNAIIEQFIDYLRTGQEMPMEMADLNAVLGEVIAAESGYEREIETALYPGSIEVKMHPLSIKRAVANMVVNAARYGNGWIKVSSGTEPNRAWFQVEDDGPGIAPEQRKHLFQPFVRGDSARTISGTGLGLAIVQRIVDNHNGMLELGTSERGGLSIRAWLPVPVTRAQGTTKEG	400 nM	–
RstBDC (DHp and CA domains of E. coli RstB, amino acids 201-433) (domain or fragment, UniProt P18392 201-433, looked up) MADNINALIASKKQLIDGIAHELRTPLVRLRYRLEMSDNLSAAESQALNRDISQLEALIEELLTYARLDRPQNELHLSEPDLPLWLSTHLADIQAVTPDKTVRIKTLVQGHYAALDMRLMERVLDNLLNNALRYCHSTVETSLLLSGNRATLIVEDDGPGIAPENREHIFEPFVRLDPSRDRSTGGCGLGLAIVHSIALAMGGTVNCDTSELGGARFSFSWPLWHNIPQFTSA	–	270000 nM
RstBHDC (cytoplasmic HAMP, DHp and CA domains of E. coli histidine kinase RstB, amino acids 157-433) (domain or fragment, UniProt P18392 157-433, looked up) MRPHWQDMLKLEAAAQRFGDGHLNERIHFDEGSSFERLGVAFNQMADNINALIASKKQLIDGIAHELRTPLVRLRYRLEMSDNLSAAESQALNRDISQLEALIEELLTYARLDRPQNELHLSEPDLPLWLSTHLADIQAVTPDKTVRIKTLVQGHYAALDMRLMERVLDNLLNNALRYCHSTVETSLLLSGNRATLIVEDDGPGIAPENREHIFEPFVRLDPSRDRSTGGCGLGLAIVHSIALAMGGTVNCDTSELGGARFSFSWPLWHNIPQFTSA	300 nM	–
EnvZDC (DHp and CA domains of E. coli EnvZ, amino acids 223-450) (domain or fragment, UniProt P0AEJ4 223-450, looked up) MAAGVKQLADDRTLLMAGVSHDLRTPLTRIRLATEMMSEQDGYLAESINKDIEECNAIIEQFIDYLRTGQEMPMEMADLNAVLGEVIAAESGYEREIETALYPGSIEVKMHPLSIKRAVANMVVNAARYGNGWIKVSSGTEPNRAWFQVEDDGPGIAPEQRKHLFQPFVRGDSARTISGTGLGLAIVQRIVDNHNGMLELGTSERGGLSIRAWLPVPVTRAQGTTKEG	100 nM	–
